Reference: patent US9314499

Molecular target: T1, Histidine-tagged recombinant human Annexin A2
T1 chain: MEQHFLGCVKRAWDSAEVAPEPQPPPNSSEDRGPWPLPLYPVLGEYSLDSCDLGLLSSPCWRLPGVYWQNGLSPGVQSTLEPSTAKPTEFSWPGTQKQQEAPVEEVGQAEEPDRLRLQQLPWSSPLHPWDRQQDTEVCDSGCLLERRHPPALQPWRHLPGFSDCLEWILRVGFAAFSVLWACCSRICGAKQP

B1: tissue plasminogen activator (protein)
chain: SYQVICRDEKTQMIYQQHQSWLRPVLRSNRVEYCWCNSGRAQCHSVPVKSCSEPRCFNGGTCQQALYFSDFVCQCPEGFAGKCCEIDTRATCYEDQGISYRGTWSTAESGAECTNWNSSALAQKPYSGRRPDAIRLGLGNHNYCRNPDRDSKPWCYVFKAGKYSSEFCSTPACSEGNSDCYFGNGSAYRGTHSLTESGASCLPWNSMILIGKVYTAQNPSAQALGLGKHNYCRNPDGDAKPWCHVLKNRRLTWEYCDVPSCSTCGLRQYSQPQFRIKGGLFADIASHPWQAAIFAKHRRSPGERFLCGGILISSCWILSAAHCFQERFPPHHLTVILGRTYRVVPGEEEQKFEVEKYIVHKEFDDDTYDNDIALLQLKSDSSRCAQESSVVRTVCLPPADLQLPDWTECELSGYGKHEALSPFYSERLKEAHVRLYPSSRCTSQHLLNRTVTDNMLCAGDTRSGGPQANLHDACQGDSGGPLVCLNDGRMTLVGIISWGLGCGQKDVPGVYTKVTNYLDWIRDNMRP
- tPA-converted plasmin generation (in vitro plasmin activity assay, fluorogenic substrate D-Val-Leu-Lys-AMC): a combination of rA2 (5 µg/ml) and tPA (2.5 µg/ml) significantly amplified tPA-converted plasmin generation
